Reference: patent US20250345413A1 (VIRAVAXX, published 2025)

Target: T1, human ACE2 protein (GenScript) (human, UniProt Q9BYF1 18-740)
T1 construct: also called angiotensin-converting enzyme 2; hACE2
Assay: ELISA, plate-bound ACE2, detection by anti-His antibody

T1 sequence (Q9BYF1 18-740 limits assumed): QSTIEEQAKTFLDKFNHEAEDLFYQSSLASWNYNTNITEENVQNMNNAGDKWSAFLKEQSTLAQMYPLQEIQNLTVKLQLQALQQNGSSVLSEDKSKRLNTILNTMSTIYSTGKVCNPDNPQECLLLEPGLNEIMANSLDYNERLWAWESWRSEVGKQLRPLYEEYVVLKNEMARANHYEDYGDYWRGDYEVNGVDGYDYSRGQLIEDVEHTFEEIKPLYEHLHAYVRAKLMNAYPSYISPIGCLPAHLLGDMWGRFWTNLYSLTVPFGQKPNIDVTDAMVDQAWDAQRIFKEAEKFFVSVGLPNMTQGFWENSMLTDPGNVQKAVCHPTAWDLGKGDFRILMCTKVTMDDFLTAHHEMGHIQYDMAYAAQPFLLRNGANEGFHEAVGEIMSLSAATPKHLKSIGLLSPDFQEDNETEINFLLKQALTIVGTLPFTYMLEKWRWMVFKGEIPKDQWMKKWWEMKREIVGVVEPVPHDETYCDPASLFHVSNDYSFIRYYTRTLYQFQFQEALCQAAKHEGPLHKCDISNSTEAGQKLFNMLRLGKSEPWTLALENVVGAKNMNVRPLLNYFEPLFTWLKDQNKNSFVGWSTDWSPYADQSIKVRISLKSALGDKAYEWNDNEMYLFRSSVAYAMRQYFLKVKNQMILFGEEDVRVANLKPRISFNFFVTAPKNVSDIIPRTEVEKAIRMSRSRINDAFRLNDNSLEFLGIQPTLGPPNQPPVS

B1: cysteine-containing, His-tagged recombinant Parietaria allergen, Par j 2 (other)
chain: EEACGKVVQDIMPCLHFVKGEEKEPSKECCSGTKKLSEEVKTTEQKREACKCIVRATKGISGIKNELVAEVPKKCDIKTTLPPITADFDCSKIQSTIFRGYY
notes: also called negative control protein
- binding result: no binding
